Values joined by “and” are separate entries in the source; they are usually repeats but may differ in a detail not shown here. Equal entries are not always repeated.
Key:
cross-linking = target: the molecule itself; experiment: cross-linking
[1] = target: the molecule itself; experiment: negative-stain electron microscopy

B1: Schmallenberg virus (SBV) nucleocapsid (N) protein (natural protein)
chain: MSSQFIFEDVPQRNAATFNPEVGYVAFIGKYGQQLNFGVARVFFLNQKKAKMVLHKTAQPSVDLTFGGVKFTVVNNHFPQYVSNPVPDNAITLHRMSGYLARWIADTCKASVLKLAEASAQIVMPLAEVKGCTWADGYTMYLGFAPGAEMFLDAFDFYPLVIEMHRVLKDNMDVNFMKKVLRQRYGTMTAEEWMTQKITEIKAAFNSVGQLAWAKSGFSPAARTFLQQFGINI
cross-linking
  stoichiometry N: 3
[1]
  stoichiometry N: 4 and 5

— paper PMC3708532 (RNA, 2013)
